Target: the molecule itself
Assay: SDS-PAGE and anti-6xHis immunoblot of Ni-affinity elution fractions

B1: 6xHis tagged PdhR (natural protein)
chain: MAYSKIRQPKLSDVIEQQLEFLILEGTLRPGEKLPPERELAKQFDVSRPSLREAIQRLEAKGLLLRRQGGGTFVQSSLWQSFSDPLVELLSDHPESQYDLLETRHALEGIAAYYAALRSTDEDKERIRELHHAIELAQQSGDLDAESNAVLQYQIAVTEAAHNVVLLHLLRCMEPMLAQNVRQNFELLYSRREMLPLVSSHRTRIFEAIMAGKPEEAREASHRHLAFIEEILLDRSREESRRERSLRRLEQRKN
notes: also called PdhR-his; recombinant PdhR-his; source: E. coli BL21 DE3 (pET21a(+)), purified (Ni2+ chelating column, HisTrap)
- stoichiometry N: 2

Reference: PMC11508082 (PLOS Pathogens, 2024)
